Positions count from the first letter of the chain named.

Here are results for two molecules from US20220227882A1 (TRUSTEES OF TUFTS COLLEGE, published 2022).

The target of one test is T1, A462S (Homo sapiens, UniProt P78325).
T1 construct: expressed on HEK293 cells; also called human ADAM8 point mutant A462S
T1 sequence (ADAM8, looked up): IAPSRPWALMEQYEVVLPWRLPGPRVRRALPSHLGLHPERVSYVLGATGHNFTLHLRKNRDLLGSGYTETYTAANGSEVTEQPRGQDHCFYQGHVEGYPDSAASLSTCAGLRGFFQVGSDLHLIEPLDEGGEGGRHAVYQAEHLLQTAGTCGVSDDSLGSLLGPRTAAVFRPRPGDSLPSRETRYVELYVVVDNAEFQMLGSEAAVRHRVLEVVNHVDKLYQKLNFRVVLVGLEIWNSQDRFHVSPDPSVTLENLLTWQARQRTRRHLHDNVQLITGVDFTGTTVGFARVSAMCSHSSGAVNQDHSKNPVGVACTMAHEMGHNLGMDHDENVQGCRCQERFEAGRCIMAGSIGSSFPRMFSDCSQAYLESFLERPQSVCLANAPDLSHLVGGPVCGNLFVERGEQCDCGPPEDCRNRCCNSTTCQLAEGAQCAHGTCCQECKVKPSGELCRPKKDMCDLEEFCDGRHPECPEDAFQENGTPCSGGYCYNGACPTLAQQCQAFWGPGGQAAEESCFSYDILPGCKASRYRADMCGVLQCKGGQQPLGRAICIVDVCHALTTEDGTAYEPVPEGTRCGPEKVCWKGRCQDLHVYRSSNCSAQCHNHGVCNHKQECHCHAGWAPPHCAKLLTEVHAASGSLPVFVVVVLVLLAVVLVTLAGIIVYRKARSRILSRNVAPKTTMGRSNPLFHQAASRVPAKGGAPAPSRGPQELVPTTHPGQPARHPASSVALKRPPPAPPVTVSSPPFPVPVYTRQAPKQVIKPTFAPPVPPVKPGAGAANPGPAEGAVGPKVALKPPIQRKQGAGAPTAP
The test is described as follows: high-throughput flow cytometry, HEK293 cells with mutant ADAM8, high stringency; range in parentheses. How it is done: (§1) A variety of experimental parameters were optimized for high-throughput flow cytometry including blocking buffer, and primary and secondary antibody concentrations, to identify the optimal conditions for screening. Through these studies ADP2 and ADP13 were determined to be high affinity binding antibodies.
(§2) Thus, for these studies antigen-binding fragments (Fabs) of ADP2 and ADP13, which bind with lower affinity than the full antibody, were generated. In addition, higher binding stringency conditions were tested, such as increased pH, salinity, and temperature, and/or increased washing, to weaken binding sufficiently to allow identification of critical binding residues in flow cytometry. The final experimental flow cytometry conditions were: primary antibody incubation with ADP2 Fab (0.50 μg/ml), ADP13 Fab (5.00 μg/ml) and Control Ab (0.16 μg/ml) for 60 minutes in flow cytometry buffer containing 10% goat serum in PBS (Ca²⁺ and Mg²⁺ free). […] Samples were washed three times after primary antibody incubation and twice after secondary antibody incubation with PBS (Ca²⁺ and Mg′ free). Next, HEK293 cells expressing WT or mutated ADAM8 proteins or EV DNA were incubated with ADP2 or ADP13 Fabs or Control Ab at their optimal concentrations. Fab binding was detected using Alexa Fluor 488-conjugated secondary antibodies and mean cellular fluorescence determined using the Intellicyt iQue flow cytometry platform. […] This counter-screen strategy facilitates the exclusion of mutants that are locally misfolded or that have an expression defect. Binding of each test Fab to each mutant clone in the alanine scanning library was determined, in duplicate, by high-throughput flow cytometry.
On the technique in general: In flow cytometry, cells or beads pass a laser one at a time.

The target of the next test is T2, R431A (Homo sapiens, UniProt P78325).
T2 construct: expressed on HEK293 cells; also called human ADAM8 point mutant R431A
T2 sequence (ADAM8, looked up): T1 sequence (ADAM8, looked up) with R415A, S446A
Described as above. Here is the method: as §1, §2

B1: ADP2 Fab (Fab, V domains shown)
VH: EVKLVESGGGLVQPGGSLSLSCAASGFSFPDYYMSWVRQPPGKALEWLGFIRDSANGYTTEYIASVKGRFTFSRDNSQSILYLQMNALRAEDSATYYCARYSRYYGMDYWGQGTSVTVSS
VL: SIVMTQTPKILLVSAGDRVTITCKASQTVNYDVAWYQQKPGQSPKPVIYFASNRYTGVPDRFTGSGFGTDFTFTISTVQAEDLAVYFCQQDYSAPWTFGGGTKLEIK
With B1, the “Binding Reactivity (% WT)” value in the test with A462S was 50.1 % WT.

B2: ADP13 Fab (Fab, V domains shown)
VH: EVQLQQSGPEMVKPGTSVKISCKASGYTFTDYYINWVKQSHGKSLEWIGDISPNIGGATYNPKFKGKAILTVDKSARTAYMELRSLTSEDSAVYCCTRGGSSYPYFYAMDYWGQGTSVTVSS
VL: DIVMSQSPSSLAVSVGEKVTMSCKSSQSLLYSSNQKKYLAWYQQKPGQSPKLLIYWASTRESGVPDRFTGSGSGTDFTLTISSVKAEDLAVYYCQQFYSYPYTFGGGTKLEINR
In the case of B2, the “Binding Reactivity (% WT)” value with R431A was 79.6 % WT.
